Results as given in US9889181B2, “Bacteriophage lysin and antibiotic combinations against gram positive bacteria” (priority 2012, dated 2018).
Where two headings read alike, the source gives them in different places.

Key:
Klebsiella spp. = experiment: MIC, human gut bacteria; format: cell-based; settings: N 8
Proteus mirabilis = experiment: MIC, human gut bacteria; format: cell-based; settings: N 2
Lactobacillus spp. = experiment: MIC, human gut bacteria; format: cell-based; settings: N 6
[1] = test system: S. aureus cells (strain MW2); experiment: Electron microscopy of bacteriolysis; format: cell-based, Staphylococcus aureus
Source text: FIG. 4A-4F provides composite time kill curves of PlySS2 and antibiotics on S. aureus cells in vitro. (A, B) Composite time-kill curves of PlySS2 compared to oxacillin (OXA), vancomycin (VAN), and daptomycin (DAP) against sets of 20 MSSA and 42 MRSA strains, respectively. In each individual analysis, drug concentrations correspond to strain-specific 1×MIC values. Mean values (±standard error of the mean) are shown for each time-point. (C, D) Titration analysis of PlySS2 against sets of 15 contemporary clinical MSSA and MRSA isolates, respectively. In each individual analysis, PlySS2 concentrations correspond to strain-specific MIC values. […] (E,F) Transmission electron micrographs (3300× magnification) of S. aureus cells (strain MW2) before and after 3 second treatment with 8 µg/mL PlySS2. Scale bars correspond to […]. Lysis results in the loss of darkly stained cytoplasmic components.
Rapid-kill kinetics are desirable in the clinical setting to treat patients with fulminant bacterial infections.

MRSA strains = experiment: Time kill assay, PlySs2 and antibiotic alone or in combination; format: cell-based, Staphylococcus aureus; settings: ½ MIC of PlySs2 or ¼ MIC of vancomycin alone
MRSA S. aureus strains = experiment: Dual agent MIC assay (PlySs2 and daptomycin); format: cell-based, Staphylococcus aureus
[2] = test system: MRSA strain MW2 and MSSA strain ATCC 29213; format: cell-based, Staphylococcus aureus; settings: consistently across 1.25 to 15% surfactant
MRSA strain MW2 = experiment: Murine bacteremia, low challenge model; format: in vivo, BALB/c mice; settings: single dose at 4 hours; 1.25 mg/kg PlySs2, 2 mg/kg daptomycin
[3] = test system: MRSA strain MW2 (also strains 738, 832); format: in vivo, BALB/c mice; settings: 10^9 CFU, dosing at 2 hours, PlySs2 5.25 mg/kg
MRSA = experiment: Murine bacteremia, PlySs2 dose-response and blood CFUs; format: in vivo, mice; settings: for decrease in CFUs in blood: 5.25 mg/kg at 2-hours post-infection
MSSA = experiment: MIC, broth microdilution (CLSI M07-A9)
VISA = experiment: MIC, broth microdilution (CLSI M07-A9); design: MIC 50% / MIC 90% / MIC Range: unit not given beside the values
VRSA = experiment: MIC, broth microdilution (CLSI M07-A9)
LRSA = experiment: MIC, broth microdilution (CLSI M07-A9); design: MIC 50% / MIC 90% / MIC Range: unit not given beside the values
DRSA = experiment: MIC, broth microdilution (CLSI M07-A9)
[4] = test system: Streptococcus agalactiae, Group B; experiment: MIC, broth microdilution (CLSI M07-A9); settings: Group B (51)
[5] = test system: Staphylococcus lugdiensis; experiment: MIC, broth microdilution (CLSI M07-A9); settings: Staphylococcus lugdiensis (10)
[6] = test system: Staphylococcus epidermidis; experiment: MIC, broth microdilution (CLSI M07-A9); settings: Staphylococcus epidermidis (11)
Streptococcus pneumoniae = experiment: MIC, broth microdilution (CLSI M07-A9); settings: Streptococcus pneumoniae (26)
Streptococcus mutans = experiment: MIC, broth microdilution (CLSI M07-A9); settings: Streptococcus mutans (12)
Enterococcus faecalis = experiment: MIC, broth microdilution (CLSI M07-A9); settings: Enterococcus faecalis (17)
Enterococcus faecium = experiment: MIC, broth microdilution (CLSI M07-A9); settings: Enterococcus faecium (5)
Pseudomonas aeruginosa = experiment: MIC, broth microdilution (CLSI M07-A9)
[7] = FIG. 27B, daptomycin 50 mg/kg once daily
[8] = FIG. 27E, vancomycin 110 mg/kg twice daily
[9] = Staphylcoccus aureus Methicillin susceptible (103)
[10] = Vancomycin-intermediate (31) Staphylococcus aureus
[11] = Linezolid-resistant (5) Staphylococcus aureus

B1: PlySs2: bacteriophage lysin derived from Streptococcus suis, amino acid sequence of FIG. 29 (SEQ ID NO: 1) (protein, listed as Streptococcus suis)
chain: MTTVNEALNNVRAQVGSGVSVGNGECYALASWYERMISPDATVGLGAGVGWVSGAIGDTISAKNIGSSYNWQANGWTVSTSGPFKAGQIVTLGATPGNPYGHVVIVEAVDGDRLTILEQNYGGKRYPVRNYYSAASYRQQVVHYITPPGTVAQSAPNLAGSRSYRETGTMTVTVDALNVRRAPNTSGEIVAVYKRGESFDYDTVIIDVNGYVWVSYIGGSGKRNYVATGATKDGKRFGNAWGTFK
**Q.** What does the source list for B1?
**A.** CF-301 MIC (Klebsiella spp.): >512 µg/mL; CF-301 MIC (Proteus mirabilis): >512 µg/mL; CF-301 MIC (Lactobacillus spp.): >512 µg/mL; treatment time giving extensive bacteriolysis of S. aureus cocci [1]: 15 s; effect alone at sub-MIC doses up to 6 hours (MRSA strains): ineffective or poorly effective; Fold reduction (MRSA S. aureus strains; MRSA strain 223): 4 fold; Fold reduction (MRSA S. aureus strains; MRSA strain 241): 2 fold; Fold reduction (MRSA S. aureus strains; MRSA strain 263): 4 fold; Fold reduction (MRSA S. aureus strains; MRSA strain 269 (MW2)): 4 fold; Fold reduction (MRSA S. aureus strains; MRSA strain 270): 4 fold; Fold reduction (MRSA S. aureus strains; MRSA strain 553): 2 fold; Fold reduction (MRSA S. aureus strains; MRSA strain 650): 2 fold; Fold reduction (MRSA S. aureus strains; MRSA strain 827): 2 fold; Fold reduction (MRSA S. aureus strains; MRSA strain 828): 4 fold; Fold reduction (MRSA S. aureus strains; MRSA strain 829): 2 fold; Fold reduction (MRSA S. aureus strains; MRSA strain 830): 2 fold; Fold reduction (MRSA S. aureus strains; MRSA strain 833): 4 fold; fold reduction in the effective MIC in PlySs2/daptomycin combination (MRSA S. aureus strains; across 12 MRSA strains): 2-4 fold; fold inhibition of MIC in the presence of Survanta [2]: 8 fold; survival at 72 hours (MRSA strain MW2): 13%; 24 hour survival rate [3, 7]: 56%; 72 hour survival rate [3, 7]: 18%; 24 hour survival rate [3, 8]: 60%; 72 hour survival rate [3, 8]: 3%; protection (MRSA; 5 mg/kg dose, data not shown): significant protection; decrease in CFUs in blood (MRSA; in 15 minutes): 0.5 log10; decrease in CFUs in blood (MRSA; within the 60 minutes of treatment): 2 log10; lowest dose with survival enhancement over mock-injected control (MRSA; data not shown): 0.25 mg/kg; MIC90 (MSSA; MSSA (n-28)): 0.15 µM; MIC 50% (MSSA; [9]): 4 µg/mL; MIC 90% (MSSA; [9]): 8 µg/mL; MIC Range (MSSA; [9]): 1 to 16 µg/mL; MIC90 (VISA; VISA (n = 10)): 1.2 µM; MIC 50% (VISA; [10]): 8; MIC 90% (VISA; [10]): 32; MIC Range (VISA; [10]): 1-64; MIC90 (VRSA; VRSA (n = 14)): 0.08 µM; MIC Range (VRSA; Vancomycin-resistant (14) Staphylococcus aureus): 1000 to 4000 µg/mL; MIC90 (LRSA; LRSA (n = 5)): 0.08 µM; MIC 50% (LRSA; [11]): 2; MIC 90% (LRSA; [11]): 2; MIC Range (LRSA; [11]): 2-4; MIC90 (DRSA; DRSA (n = 8)): 0.15 µM; MIC Range (DRSA; Daptomycin-resistant (8) Staphylococcus aureus): 2000 to 4000 µg/mL; MIC 50% [4]: 8 µg/mL; MIC 90% [4]: 16 µg/mL; MIC Range [4]: 1 to 64 µg/mL; MIC 50% [5]: 8 µg/mL; MIC 90% [5]: 8 µg/mL; MIC Range [5]: 8 µg/mL; MIC 50% [6]: 128 µg/mL; MIC 90% [6]: 512 µg/mL; MIC Range [6]: 4 to 512 µg/mL; MIC 50% (Streptococcus pneumoniae): 16 µg/mL; MIC 90% (Streptococcus pneumoniae): 64 µg/mL; MIC Range (Streptococcus pneumoniae): 1 to 64 µg/mL; MIC 50% (Streptococcus mutans): 64 µg/mL; MIC 90% (Streptococcus mutans): 256 µg/mL; MIC Range (Streptococcus mutans): 2 to 256 µg/mL; MIC 50% (Enterococcus faecalis): >512 µg/mL; MIC 90% (Enterococcus faecalis): >512 µg/mL; MIC 50% (Enterococcus faecium): >512 µg/mL; MIC 90% (Enterococcus faecium): >512 µg/mL; MIC 50% (Pseudomonas aeruginosa; Pseudomonas aeruginosa (5)): >512 µg/mL; MIC 90% (Pseudomonas aeruginosa; Pseudomonas aeruginosa (5)): >512 µg/mL; MIC Range (Pseudomonas aeruginosa; Pseudomonas aeruginosa (5)): >512 µg/mL; CF-301 MIC (Pseudomonas aeruginosa; Pseudomonas aeruginosa, N 11, human gut bacteria): >512 µg/mL
